Reference: the supplement of paper PMC9112550, “Optimization of the antimicrobial peptide Bac7 by deep mutational scanning” (BMC Biology, 2022)

tested on: Escherichia coli TOP10; assay: shrunken log2 fold change of peptide-encoding DNA abundance (4.5 h post-induction vs induction); higher = less antimicrobial activity (less host growth inhibition); details: time post-induction: 4.5 h; library: site-saturation at positions 5, 18, 19, 20
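Note: peptides expressed intracellularly from a pBAD plasmid library in pooled LB shake-flask culture, induced with 0.3% L-arabinose, DNA abundance read by NGS, three biological replicates, DESeq2 with apeglm shrinkage.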

Row | Sequence | shrunken log2 fold change
1 | RRIRWRPPRLPRPRPRPPDGPRP | 0.784
2 | RRIRMRPPRLPRPRPRPFVNPRP | 1.6
3 | RRIRHRPPRLPRPRPRPSARPRP | -0.223
4 | RRIRYRPPRLPRPRPRPICMPRP | -0.018
5 | RRIRARPPRLPRPRPRPPCSPRP | 0.752
6 | RRIRKRPPRLPRPRPRPLSNPRP | 0.436
7 | RRIRYRPPRLPRPRPRPNDIPRP | -0.299
8 | RRIRSRPPRLPRPRPRPIKDPRP | -0.224
9 | RRIRHRPPRLPRPRPRPPKSPRP | 0.398
10 | RRIRHRPPRLPRPRPRPKAPPRP | 0.0258
11 | RRIRNRPPRLPRPRPRPEEEPRP | -0.00134
12 | RRIRTRPPRLPRPRPRPHTCPRP | -0.0347
13 | RRIRDRPPRLPRPRPRPLNVPRP | -0.029
14 | RRIRHRPPRLPRPRPRPTIYPRP | -0.254
15 | RRIRERPPRLPRPRPRPAEEPRP | -0.175
16 | RRIRTRPPRLPRPRPRPFTIPRP | -0.293
17 | RRIRIRPPRLPRPRPRPNQWPRP | -0.422
18 | RRIRERPPRLPRPRPRPKSAPRP | 0.116
19 | RRIRKRPPRLPRPRPRPTVNPRP | 0.402
20 | RRIRLRPPRLPRPRPRPKTPPRP | 0.526
21 | RRIRPRPPRLPRPRPRPCMFPRP | -0.577
22 | RRIRVRPPRLPRPRPRPKNHPRP | -0.18
23 | RRIRARPPRLPRPRPRPRPVPRP | 0.771
24 | RRIRPRPPRLPRPRPRPTYWPRP | -0.00192
25 | RRIRGRPPRLPRPRPRPPSLPRP | 0.477

Row | Sequence | shrunken log2 fold change
26 | RRIRGRPPRLPRPRPRPWDCPRP | -0.0637
27 | RRIRDRPPRLPRPRPRPWFEPRP | -0.175
28 | RRIRSRPPRLPRPRPRPCPIPRP | -0.267
29 | RRIRRRPPRLPRPRPRPNLGPRP | 0.00298
30 | RRIRDRPPRLPRPRPRPQTAPRP | 4.26
31 | RRIRKRPPRLPRPRPRPCANPRP | 0.232
32 | RRIRKRPPRLPRPRPRPIWYPRP | -0.26
33 | RRIRNRPPRLPRPRPRPLIRPRP | -0.0892
34 | RRIRARPPRLPRPRPRPKSRPRP | 0.474
35 | RRIRIRPPRLPRPRPRPLVKPRP | -0.0899
36 | RRIRQRPPRLPRPRPRPPFAPRP | 0.742
37 | RRIRRRPPRLPRPRPRPFGRPRP | 0.114
38 | RRIRWRPPRLPRPRPRPQRWPRP | 0.308
39 | RRIRQRPPRLPRPRPRPTDKPRP | -0.112
40 | RRIRWRPPRLPRPRPRPMQAPRP | 1.83
41 | RRIRTRPPRLPRPRPRPIAIPRP | -0.0261
42 | RRIRVRPPRLPRPRPRPIRDPRP | 0.0875
43 | RRIRERPPRLPRPRPRPSPLPRP | -0.0982
44 | RRIRFRPPRLPRPRPRPFTQPRP | 0.0192
45 | RRIRMRPPRLPRPRPRPDLHPRP | 0.0663
46 | RRIRYRPPRLPRPRPRPKFFPRP | 0.131
47 | RRIRKRPPRLPRPRPRPCNAPRP | -0.0429
48 | RRIRKRPPRLPRPRPRPIHHPRP | 0.0077
49 | RRIRTRPPRLPRPRPRPAWPPRP | 0.444
50 | RRIRSRPPRLPRPRPRPCCDPRP | -0.284

Row | Sequence | shrunken log2 fold change
51 | RRIRNRPPRLPRPRPRPHQIPRP | -0.247
52 | RRIRCRPPRLPRPRPRPMTKPRP | 0.0306
53 | RRIRGRPPRLPRPRPRPSGQPRP | 0.538
54 | RRIRKRPPRLPRPRPRPSTEPRP | 0.136
55 | RRIRERPPRLPRPRPRPQSKPRP | -0.769
56 | RRIRMRPPRLPRPRPRPHMHPRP | 0.00917
57 | RRIRHRPPRLPRPRPRPAIFPRP | -0.00284
58 | RRIRFRPPRLPRPRPRPMMVPRP | -0.112
59 | RRIRNRPPRLPRPRPRPYISPRP | 0.00753
60 | RRIRDRPPRLPRPRPRPQFNPRP | -0.195
61 | RRIRNRPPRLPRPRPRPCGIPRP | -0.138
62 | RRIRRRPPRLPRPRPRPAMEPRP | 0.019
63 | RRIRYRPPRLPRPRPRPNNLPRP | -0.582
64 | RRIRERPPRLPRPRPRPTERPRP | 0.0425
65 | RRIRRRPPRLPRPRPRPSHWPRP | 0.183
66 | RRIRIRPPRLPRPRPRPSVEPRP | -0.947
67 | RRIRERPPRLPRPRPRPNYNPRP | -1.1
68 | RRIRERPPRLPRPRPRPNHWPRP | -0.138
69 | RRIRIRPPRLPRPRPRPPTVPRP | -0.155
70 | RRIRWRPPRLPRPRPRPMCNPRP | -0.181
71 | RRIRRRPPRLPRPRPRPMEIPRP | -0.0055
72 | RRIRRRPPRLPRPRPRPVNFPRP | -0.0106
73 | RRIRGRPPRLPRPRPRPRRHPRP | 0.612
74 | RRIRQRPPRLPRPRPRPNWQPRP | -0.0119
75 | RRIRARPPRLPRPRPRPWTPPRP | 0.123

Row | Sequence | shrunken log2 fold change
76 | RRIRHRPPRLPRPRPRPWHCPRP | 0.162
77 | RRIRYRPPRLPRPRPRPIVAPRP | -0.246
78 | RRIRYRPPRLPRPRPRPSGWPRP | -0.00312
79 | RRIRRRPPRLPRPRPRPIAFPRP | -0.0124
80 | RRIRMRPPRLPRPRPRPSFQPRP | -0.283
81 | RRIRTRPPRLPRPRPRPYRIPRP | -0.0176
82 | RRIRVRPPRLPRPRPRPDNAPRP | -0.501
83 | RRIRNRPPRLPRPRPRPSPMPRP | -0.0245
84 | RRIRARPPRLPRPRPRPVNVPRP | -0.169
85 | RRIRGRPPRLPRPRPRPKHAPRP | 1.21
86 | RRIRVRPPRLPRPRPRPGGQPRP | -0.0141
87 | RRIRNRPPRLPRPRPRPGRYPRP | 0.00112
88 | RRIRRRPPRLPRPRPRPTRQPRP | 1.33
89 | RRIRPRPPRLPRPRPRPWAMPRP | -0.223
90 | RRIRIRPPRLPRPRPRPAIYPRP | -0.00708
91 | RRIRLRPPRLPRPRPRPSIFPRP | -0.709
92 | RRIRCRPPRLPRPRPRPVQDPRP | 0.0523
93 | RRIRYRPPRLPRPRPRPTWHPRP | -0.349
94 | RRIRERPPRLPRPRPRPDIYPRP | 0.137
95 | RRIRLRPPRLPRPRPRPLINPRP | -0.519
96 | RRIRQRPPRLPRPRPRPKMAPRP | 0.12
97 | RRIRCRPPRLPRPRPRPNHSPRP | -0.936
98 | RRIRIRPPRLPRPRPRPAIAPRP | -0.206
99 | RRIRLRPPRLPRPRPRPSFQPRP | -0.514
100 | RRIRDRPPRLPRPRPRPLPMPRP | 0.0543

Row | Sequence | shrunken log2 fold change
101 | RRIRTRPPRLPRPRPRPCVPPRP | -0.109
102 | RRIRKRPPRLPRPRPRPSQEPRP | -0.0223
103 | RRIRFRPPRLPRPRPRPSAKPRP | 0.319
104 | RRIRMRPPRLPRPRPRPGCKPRP | 0.172
105 | RRIRHRPPRLPRPRPRPTVPPRP | -0.0133
106 | RRIRSRPPRLPRPRPRPSESPRP | -0.198
107 | RRIRVRPPRLPRPRPRPPTDPRP | 0.116
108 | RRIRHRPPRLPRPRPRPKGWPRP | 0.103
109 | RRIRYRPPRLPRPRPRPIREPRP | -0.271
110 | RRIRQRPPRLPRPRPRPQVKPRP | -0.101
111 | RRIRRRPPRLPRPRPRPCPHPRP | -0.27
112 | RRIRKRPPRLPRPRPRPNVPPRP | 0.11
113 | RRIRRRPPRLPRPRPRPDGAPRP | 0.766
114 | RRIRDRPPRLPRPRPRPKEAPRP | -0.0217
115 | RRIRPRPPRLPRPRPRPEEHPRP | -0.0242
116 | RRIRNRPPRLPRPRPRPVKRPRP | 0.0962
117 | RRIRCRPPRLPRPRPRPGMAPRP | 0.418
118 | RRIRVRPPRLPRPRPRPVAAPRP | 0.368
119 | RRIRWRPPRLPRPRPRPHDYPRP | 0.0166
120 | RRIRSRPPRLPRPRPRPRENPRP | 0.468
121 | RRIRIRPPRLPRPRPRPSETPRP | -0.297
122 | RRIRVRPPRLPRPRPRPMNSPRP | -0.675
123 | RRIRHRPPRLPRPRPRPRMQPRP | 0.183
124 | RRIRLRPPRLPRPRPRPVFFPRP | 0.0612
125 | RRIRLRPPRLPRPRPRPAICPRP | 0.207

Row | Sequence | shrunken log2 fold change
126 | RRIRYRPPRLPRPRPRPNNGPRP | -0.156
127 | RRIRCRPPRLPRPRPRPFKPPRP | -0.302
128 | RRIRSRPPRLPRPRPRPHLWPRP | -0.0232
129 | RRIRFRPPRLPRPRPRPFKKPRP | -0.119
130 | RRIRDRPPRLPRPRPRPCENPRP | 0.0231
131 | RRIRHRPPRLPRPRPRPFFAPRP | 0.0898
132 | RRIRIRPPRLPRPRPRPFFKPRP | -0.629
133 | RRIRNRPPRLPRPRPRPLQWPRP | 0.0683
134 | RRIRCRPPRLPRPRPRPAGPPRP | 0.116
135 | RRIRYRPPRLPRPRPRPFWCPRP | -0.208
136 | RRIRIRPPRLPRPRPRPNRNPRP | -1.1
137 | RRIRKRPPRLPRPRPRPCEPPRP | 0.553
138 | RRIRHRPPRLPRPRPRPQTPPRP | 0.374
139 | RRIRGRPPRLPRPRPRPTCHPRP | 0.893
140 | RRIRKRPPRLPRPRPRPFMNPRP | -0.0366
141 | RRIRIRPPRLPRPRPRPRSSPRP | 0.152
142 | RRIRERPPRLPRPRPRPMMHPRP | 0.0413
143 | RRIRDRPPRLPRPRPRPLTFPRP | -0.212
144 | RRIRVRPPRLPRPRPRPLDGPRP | -0.267
145 | RRIRGRPPRLPRPRPRPYCFPRP | 0.0329
146 | RRIRFRPPRLPRPRPRPQGGPRP | 0.0852
147 | RRIRARPPRLPRPRPRPFLCPRP | 0.0599
148 | RRIRSRPPRLPRPRPRPFQHPRP | -0.0131
149 | RRIRSRPPRLPRPRPRPYCCPRP | -0.375
150 | RRIRVRPPRLPRPRPRPPMCPRP | 0.0598
